From patent publication US20210347912A1

Molecular target: Human YKL-40 also known as Chitinase-3-like protein 1 (CHI3L1) (human) (UniProt P36222)
Assay: phage ELISA, plate coated with 0.5 ug purified YKL-40, anti-M13-HRP/TMB, well F2

Sequence of UniProt P36222 (P36222 22-383 limits assumed): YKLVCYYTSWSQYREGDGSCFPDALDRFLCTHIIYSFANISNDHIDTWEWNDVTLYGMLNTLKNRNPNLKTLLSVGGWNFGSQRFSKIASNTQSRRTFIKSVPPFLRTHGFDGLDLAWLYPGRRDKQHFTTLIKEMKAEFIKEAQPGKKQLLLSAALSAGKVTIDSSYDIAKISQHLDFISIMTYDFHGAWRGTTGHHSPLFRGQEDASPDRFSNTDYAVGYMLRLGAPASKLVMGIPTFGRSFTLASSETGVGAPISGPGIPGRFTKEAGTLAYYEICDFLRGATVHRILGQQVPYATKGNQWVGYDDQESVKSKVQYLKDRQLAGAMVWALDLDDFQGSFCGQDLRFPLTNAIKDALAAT

ELISA signal: 0.054
B1: 2B8 predator (VHH)
VHH: EVQLLESGGGLVQPGGSLRLSCAASGFRDSDEDMGWVRQAPGKGLEWVSSIYAPNGSTYYADSVKGRFTISRDNSKNTLYLQMNSLRAEDTAVYYCASNTYDAFDYWGQGTLVTVSS
